Biological target: T1, soluble EPCR ECD (truncated after Ser210) (Homo sapiens, UniProt Q9UNN8)
T1 chain: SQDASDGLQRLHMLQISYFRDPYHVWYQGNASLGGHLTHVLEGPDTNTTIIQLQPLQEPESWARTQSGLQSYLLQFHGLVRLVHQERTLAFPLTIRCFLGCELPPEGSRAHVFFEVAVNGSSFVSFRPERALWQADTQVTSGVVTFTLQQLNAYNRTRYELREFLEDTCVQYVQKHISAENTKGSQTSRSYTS
Assay: solid-phase plate binding assay

Kd: 24 nM
B1: activated protein C (protein)
chain 1: ANSFLEELRHSSLERECIEEICDFEEAKEIFQNVDDTLAFWSKHVDGDQCLVLPLEHPCASLCCGHGTCIDGIGSFSCDCRSGWEGRFCQREVSFLNCSLDNGGCTHYCLEEVGWRRCSCAPGYKLGDDLLQCHPAVKFPCGRPWKRMEKKRSHL
chain 2: LIDGKMTRRGDSPWQVVLLDSKKKLACGAVLIHPSWVLTAAHCMDESKKLLVRLGEYDLRRWEKWELDLDIKEVFVHPNYSKSTTDNDIALLHLAQPATLSQTIVPICLPDSGLAERELNQAGQETLVTGWGYHSSREKEAKRNRTFVLNFIKIPVVPHNECSEVMSNMVSENMLCAGILGDRQDACEGDSGGPMVASFHGTWFLVGLVSWGEGCGLLHNYGVYTKVSRYLDWIHGHIRDKEAPQKSWAP
modifications: APC biotinylated with biotin-FPR-chloromethylketone, Ca2+ and Mg2+

Reference: PMC5053618 (2016)
